# Results reported in patent US11807868.
# Columns and labels:
# Experiment in all cases: cell-based or functional assay
# [1] = target: AAV2 capsid variant 1.45 (adeno-associated virus type 2 (AAV2)) (UniProt P03135)
# [2] = target: AAV2 capsid variant γ4.3 (adeno-associated virus type 2 (AAV2)) (UniProt P03135)
# [3] = target: SM 10-2 variant AAV capsid (Adeno-associated virus 2 (isolate Srivastava/1982) (AAV-2)) (UniProt P03135)
# [4] = target: SM 10-8 variant AAV capsid (Adeno-associated virus 2 (isolate Srivastava/1982) (AAV-2)) (UniProt P03135)
# [5] = target: SM 100-10 variant AAV capsid (Adeno-associated virus 2 (isolate Srivastava/1982) (AAV-2)) (UniProt P03135)
# [6] = target: SM 100-3 variant AAV capsid (Adeno-associated virus 2 (isolate Srivastava/1982) (AAV-2)) (UniProt P03135)
# [7] = target: wild-type AAV1 capsid (adeno-associated virus type 1 (AAV1))
# [8] = target: wild-type AAV2 capsid (adeno-associated virus type 2 (AAV2)) (UniProt P03135)
# [9] = target: wild-type AAV8 capsid (adeno-associated virus type 8 (AAV8))
substance,measurement,setting,value
"Gamimune N, 10% Human IVIG (Bayer, Elkhart Ind.)",fold enhanced resistance to pooled human IVIg compared to wild-type AAV2,[1],1.23 fold
same,fold enhanced resistance to pooled human IVIg compared to wild-type AAV2,[2],3.1 fold
same,Fold Resistance Relative to AAV2,[3],7.52 fold
same,Neutralizing IVIG concentration (IVIG required to reduce gene delivery efficiency to 50% of that in the absence of IVIG),[3],0.113 mg/mL
same,Fold Resistance Relative to AAV2,[4],3.41 fold
same,Neutralizing IVIG concentration (IVIG required to reduce gene delivery efficiency to 50% of that in the absence of IVIG),[4],0.051 mg/mL
same,Fold Resistance Relative to AAV2,[5],4.39 fold
same,Neutralizing IVIG concentration (IVIG required to reduce gene delivery efficiency to 50% of that in the absence of IVIG),[5],0.066 mg/mL
same,Fold Resistance Relative to AAV2,[6],4.94 fold
same,Neutralizing IVIG concentration (IVIG required to reduce gene delivery efficiency to 50% of that in the absence of IVIG),[6],0.074 mg/mL
same,Fold Resistance Relative to AAV2,[7],1.76 fold
same,Neutralizing IVIG concentration (IVIG required to reduce gene delivery efficiency to 50% of that in the absence of IVIG),[7],0.026 mg/mL
same,Fold Resistance Relative to AAV2,[8],1 fold
same,Neutralizing IVIG concentration (IVIG required to reduce gene delivery efficiency to 50% of that in the absence of IVIG),[8],0.015 mg/mL
same,Fold Resistance Relative to AAV2,[9],6.11 fold
same,Neutralizing IVIG concentration (IVIG required to reduce gene delivery efficiency to 50% of that in the absence of IVIG),[9],0.092 mg/mL
